T1: IL-17 D (UniProt Q8TAD2 18-202, limits assumed)
T1 sequence (looked up): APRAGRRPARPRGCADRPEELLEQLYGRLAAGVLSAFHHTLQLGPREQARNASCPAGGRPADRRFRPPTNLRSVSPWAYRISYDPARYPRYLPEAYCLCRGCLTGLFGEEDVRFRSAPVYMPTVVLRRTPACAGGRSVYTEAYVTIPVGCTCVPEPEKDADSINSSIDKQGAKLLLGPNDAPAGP

T2: IL-17 B (UniProt Q9UHF5 21-180, limits assumed)
T2 sequence (looked up): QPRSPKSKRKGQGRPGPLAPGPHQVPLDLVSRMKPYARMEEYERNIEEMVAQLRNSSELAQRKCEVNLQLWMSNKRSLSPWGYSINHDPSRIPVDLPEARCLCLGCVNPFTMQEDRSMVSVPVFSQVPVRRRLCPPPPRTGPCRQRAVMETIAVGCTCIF

T3: IL-17 C (UniProt Q9P0M4 19-197, limits assumed)
T3 sequence (looked up): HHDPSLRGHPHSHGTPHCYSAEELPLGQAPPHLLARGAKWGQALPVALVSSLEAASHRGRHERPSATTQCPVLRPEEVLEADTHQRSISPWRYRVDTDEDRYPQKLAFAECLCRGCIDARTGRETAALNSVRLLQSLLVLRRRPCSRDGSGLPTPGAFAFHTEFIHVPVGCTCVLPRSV

T4: IL-17 E (UniProt Q9H293 33-177, limits assumed)
T4 sequence (looked up): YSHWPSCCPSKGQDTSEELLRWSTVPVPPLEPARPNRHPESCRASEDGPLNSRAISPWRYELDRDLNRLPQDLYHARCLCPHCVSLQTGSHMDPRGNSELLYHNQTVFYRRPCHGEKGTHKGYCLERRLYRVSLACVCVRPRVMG

B1: Antibody CA028-0496 (murine IgG1 constant regions) (antibody, V domains shown)
VH: EVQLVESGGGLVQPGGSLRLSCAASGFTFSDYNMAWVRQAPGKGLEWVATITYEGRNTYYRDSVKGRFTISRDNAKNSLYLQMNSLRAEDTAVYYCASPPQYYEGSIYRLWFAHWGQGTLVTVSS
VL: AIQLTQSPSSLSASVGDRVTITCRADESVTTLMHWYQQKPGKAPKLLIYLVSNRESGVPSRFSGSGSGTDFTLTISSLQPEDFATYYCQQTWSDPWTFGQGTKVEIKR
notes: not shown: murine IgG1 heavy chain constant region; murine light chain constant region
B2: Antibody CA028-0496 (human IgG4 constant regions) (antibody, V domains shown)
VH: B1 VH
VL: B1 VL
notes: human gamma-4 constant region with the hinge mutation S241P and human C-kappa (Km3), made in CHO cells

Experiments:
[1] = molecular target: T5, Recombinant IL-17A/F heterodimer (human); assay: SPR (Biacore 3000, 25°C), antibody captured by anti-mouse IgG Fc, cytokine titrated from 25 nM
T5 construct: also called human recombinant IL-17A/F heterodimer; heterodimer A/F
T5 sequence (chain, as listed by the source limits assumed): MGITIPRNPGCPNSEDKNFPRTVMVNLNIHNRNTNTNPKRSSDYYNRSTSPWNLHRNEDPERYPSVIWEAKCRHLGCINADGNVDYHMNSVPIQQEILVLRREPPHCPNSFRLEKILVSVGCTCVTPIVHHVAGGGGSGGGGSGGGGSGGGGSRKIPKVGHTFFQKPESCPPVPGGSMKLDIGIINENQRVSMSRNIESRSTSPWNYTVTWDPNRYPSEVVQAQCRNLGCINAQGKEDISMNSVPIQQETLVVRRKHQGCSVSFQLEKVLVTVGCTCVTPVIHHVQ
Experimental: All experiments were performed at 25° C.
Double referenced background subtracted binding curves were analysed using the BIAevaluation software (version 3.2) following standard procedures. Kinetic parameters were determined from the fitting algorithm.

[2] = molecular target: T1, IL-17 D; assay: SPR (Biacore 3000), antibody captured by anti-human IgG Fc, cytokine in solution
Experimental: (§1) BIA (Biamolecular Interaction Analysis) was performed using a Biacore 3000 (Biacore AB). All experiments were performed at 25° C. Affinipure Fc Fragment goat anti-human IgG, Fc fragment specific (Jackson ImmunoResearch) was immobilised on a CM5 Sensor Chip via amine coupling chemistry to a capture level of ≈6000 response units (RUs). HSS-EP buffer (10 mM HEPES pH 7.4, 0.15 M NaCl, 3 mM EDTA, 0.005% Surfactant P20, Biacore AB) was used as the running buffer with a flow rate of 10 μl/min. […] The surface was regenerated by a 30 μL injections of 40 mM HCl, followed by one 5 μL injection of 5 mM NaOH.
(§2) Background subtraction binding curves were double referenced and analysed using the BIAevaluation software (version 3.2) following standard procedures. Kinetic parameters were determined from the fitting algorithm.

[3] = molecular target: T2, IL-17 B; assay: as above
Experimental: as §1, §2

[4] = molecular target: T3, IL-17 C; assay: as above
Experimental: as §1, §2

[5] = molecular target: T4, IL-17 E; assay: as above
Experimental: as §1, §2

| Binder | Kd [1] [nM] | binding result [2] | binding result [3] | binding result [4] | binding result [5] |
| --- | --- | --- | --- | --- | --- |
| B1 | 0.116 |  |  |  |  |
| B2 |  | no binding (tested: doubling dilutions from 50 nM to sub nM) | no binding (tested: doubling dilutions from 50 nM to sub nM) | no binding (tested: doubling dilutions from 50 nM to sub nM) | no binding (tested: doubling dilutions from 50 nM to sub nM) |

Reference: patent US20100266609A1 (UCB, published 2010)
